Measurements taken from patent US20100080799.

Tests used:
[1] = molecular target: recombinant H2A.X (WT), N-terminal 6xHis tag
[2] = molecular target: recombinant H2A.X Y142F, N-terminal 6xHis tag

B1: recombinant WSTF 1-345 construct (protein)
chain: MAPLLGRKPFPLVKPLPGEEPLFTIPHTQEAFRTREEYEARLERYSERIWTCKSTGSSQLTHKEAWEEEQEVAELLKEEFPAWYEKLVLEMVHHNTASLEKLVDTAWLEIMTKYAVGEECDFEVGKEKMLKVKIVKIHPLEKVDEEATEKKSDGACDSPSSDKENSSQIAQDHQKKETVVKEDEGRRESINDRARRSPRKLPTSLKKGERKWAPPKFLPHKYDVKLQNEDKIISNVPADSLIRTERPPNKEIVRYFIRHNALRAGTGENAPWVVEDELVKKYSLPSKFSDFLLDPYKYMTLNPSTKRKNTGSPDRKPSKKSKTDNSSLSSPLNPKLWCHVHLKKS
Q: What does the source list for B1?
A: kinase activity (in vitro kinase assay) [1]: the 1-345 amino acid construct of WSTF had much more potent kinase activity (>50 fold) than the 1-340 construct; in vitro kinase assay [2]: its activity towards a Y142F mutant was much reduced

B2: recombinant WSTF 1-359 C338A point mutant (protein)
chain: MAPLLGRKPFPLVKPLPGEEPLFTIPHTQEAFRTREEYEARLERYSERIWTCKSTGSSQLTHKEAWEEEQEVAELLKEEFPAWYEKLVLEMVHHNTASLEKLVDTAWLEIMTKYAVGEECDFEVGKEKMLKVKIVKIHPLEKVDEEATEKKSDGACDSPSSDKENSSQIAQDHQKKETVVKEDEGRRESINDRARRSPRKLPTSLKKGERKWAPPKFLPHKYDVKLQNEDKIISNVPADSLIRTERPPNKEIVRYFIRHNALRAGTGENAPWVVEDELVKKYSLPSKFSDFLLDPYKYMTLNPSTKRKNTGSPDRKPSKKSKTDNSSLSSPLNPKLWAHVHLKKSLSGSPLKVKNSKNS
Q: B2 was tested. Which “kinase activity (in vitro kinase assay)” value [1] did it give?
A: Its value is “the activity of a point mutant at C338 (C338A) was greatly diminished (<50 fold, FIG. 3F)”.

B3: recombinant WSTF 1-340 construct (protein)
chain: MAPLLGRKPFPLVKPLPGEEPLFTIPHTQEAFRTREEYEARLERYSERIWTCKSTGSSQLTHKEAWEEEQEVAELLKEEFPAWYEKLVLEMVHHNTASLEKLVDTAWLEIMTKYAVGEECDFEVGKEKMLKVKIVKIHPLEKVDEEATEKKSDGACDSPSSDKENSSQIAQDHQKKETVVKEDEGRRESINDRARRSPRKLPTSLKKGERKWAPPKFLPHKYDVKLQNEDKIISNVPADSLIRTERPPNKEIVRYFIRHNALRAGTGENAPWVVEDELVKKYSLPSKFSDFLLDPYKYMTLNPSTKRKNTGSPDRKPSKKSKTDNSSLSSPLNPKLWCHV
Q: B3 was tested. Which “kinase activity (in vitro kinase assay)” value [1] did it give?
A: Its value is “the activity of the 1-340 amino acid construct was much reduced (<50 fold) in comparison to the other constructs”.

B4: recombinant full length human WSTF (Flag-epitope-tagged at C terminus) (protein)
chain: MAPLLGRKPFPLVKPLPGEEPLFTIPHTQEAFRTREEYEARLERYSERIWTCKSTGSSQLTHKEAWEEEQEVAELLKEEFPAWYEKLVLEMVHHNTASLEKLVDTAWLEIMTKYAVGEECDFEVGKEKMLKVKIVKIHPLEKVDEEATEKKSDGACDSPSSDKENSSQIAQDHQKKETVVKEDEGRRESINDRARRSPRKLPTSLKKGERKWAPPKFLPHKYDVKLQNEDKIISNVPADSLIRTERPPNKEIVRYFIRHNALRAGTGENAPWVVEDELVKKYSLPSKFSDFLLDPYKYMTLNPSTKRKNTGSPDRKPSKKSKTDNSSLSSPLNPKLWCHVHLKKSLSGSPLKVKNSKNSKSPEEHLEEMMKMMSPNKLHTNFHIPKKGPPAKKPGKHSDKPLKAKGRSKGILNGQKSTGNSKSPKKGLKTPKTKMKQMTLLDMAKGTQKMTRAPRNSGGTPRTSSKPHKHLPPAALHLIAYYKENKDREDKRSALSCVISKTARLLSSEDRARLPEELRSLVQKRYELLEHKKRWASMSEEQRKEYLKKKREELKKKLKEKAKERREKEMLERLEKQKRYEDQELTGKNLPAFRLVDTPEGLPNTLFGDVAMVVEFLSCYSGLLLPDAQYPITAVSLMEALSADKGGFLYLNRVLVILLQTLLQDEIAEDYGELGMKLSEIPLTLHSVSELVRLCLRRSDVQEESEGSDTDDNKDSAAFEDNEVQDEFLEKLETSEFFELTSEEKLQILTALCHRILMTYSVQDHMETRQQMSAELWKERLAVLKEENDKKRAEKQKRKEMEAKNKENGKVENGLGKTDRKKEIVKFEPQVDTEAEDMISAVKSRRLLAIQAKKEREIQEREMKVKLERQAEEERIRKHKAAAEKAFQEGIAKAKLVMRRTPIGTDRNHNRYWLFSDEVPGLFIEKGWVHDSIDYRFNHHCKDHTVSGDEDYCPRSKKANLGKNASMNTQHGTATEVAVETTTPKQGQNLWFLCDSQKELDELLNCLHPQGIRESQLKERLEKRYQDIIHSIHLARKPNLGLKSCDGNQELLNFLRSDLIEVATRLQKGGLGYVEETSEFEARVISLEKLKDFGECVIALQASVIKKFLQGFMAPKQKRRKLQSEDSAKTEEVDEEKKMVEEAKVASALEKWKTAIREAQTFSRMHVLLGMLDACIKWDMSAENARCKVCRKKGEDDKLILCDECNKAFHLFCLRPALYEVPDGEWQCPACQPATARRNSRGRNYTEESASEDSEDDESDEEEEEEEEEEEEEDYEVAGLRLRPRKTIRGKHSVIPPAARSGRRPGKKPHSTRRSQPKAPPVDDAEVDELVLQTKRSSRRQSLELQKCEEILHKIVKYRFSWPFREPVTRDEAEDYYDVITHPMDFQTVQNKCSCGSYRSVQEFLTDMKQVFTNAEVYNCRGSHVLSCMVKTEQCLVALLHKHLPGHPYVRRKRKKFPDRLAEDEGDSEPEAVGQSRGRRQKK
Q: B4 was tested. Which “in vitro kinase assay” value [1] did it give?
A: Its value is “Full length recombinant WSTF proteins isolated from insect cells phosphorylated free H2A.X protein in the presence of Mn^2+”.

Q: And the “in vitro kinase assay (32P autoradiography)” value [1]?
A: Its value is “The recombinant full length WSTF protein phosphorylated H2A.X-containing nucleosomes”.

Q: And the “in vitro kinase assay (32P autoradiography)” value [2]?
A: The value was “WSTF phosphorylated the WT but not Y142F H2A.X”.

B5: co-expressed N-motif and C-motif of the WSTF kinase domain (protein)
chain 1: MAPLLGRKPFPLVKPLPGEEPLFTIPHTQEAFRTREEYEARLERYSERIWTCKSTGSSQLTHKEAWEEEQEVAELLKEEFPAWYEKLVLEMVHHNTASLEKLVDTAWLEIMTKYAVGEECDFEVGKEKMLKVKIVKIHPLEKVDEEATEKKSDGACDSPSSDKENSSQIAQDHQKKETVVKEDEGRRESINDRARRSPRKLPTSL
chain 2: GERKWAPPKFLPHKYDVKLQNEDKIISNVPADSLIRTERPPNKEIVRYFIRHNALRAGTGENAPWVVEDELVKKYSLPSKFSDFLLDPYKYMTLNPSTKRKNTGSPDRKPSKKSKTDNSSLSSPLNPKLWCHVHLKKS
Q: How did the “kinase activity (in vitro kinase assay)” value [1] turn out when B5 was run?
A: Its value is “The co-expressed N-motif and C-motif had significant kinase activity towards H2A.X”.
